For the data set, the target named is Mcm2EE-7 S164E;S170E (Saccharomyces cerevisiae) (UniProt P29469+P24279+P30665+P29496+P53091+P38132). Nature of the data set: gel filtration. On the technique in general: Size exclusion chromatography separates by hydrodynamic size, large species first.

Where only a bound is given, the exact number is not on record here.

Consider M13mp19 circular ssDNA, for which the binding signal (fold bound vs Mcm2WT-7 at 0.5 nM ssDNA) was more than 3.

(Values after paper PMC3167627.)
